± gives the standard deviation of the averaged measurements.
B1: library; a variant is named by its letters at N, in order (parent)
chain: GAGACCGCAACTGAAAAGTTGTGGNNNNNATAGTGAGTCGCTGCCTGCAAAGACACAACT

Variants of: B1
Experiment: ligation selection enrichment (abundance after / before one-round selection) (fold); higher = more template-directed ligation activity
Settings: with T7Psub CACGGAUGCUAAUACGACUCACUAUA; MgCl2 25 mM; 42 °C; 4 h; pH 8.5
Method in brief: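 In each of two independent experiments, 6 μM RNA substrate was reacted for 4 h at 42 °C with 0.75 μM of a T7-transcribed RNA ligase library randomized at five core positions, in buffer containing 50 mM EPPS pH 8.5 and 25 mM MgCl2. Only reads scoring ≥30 in quality at all randomized positions were counted after MiSeq sequencing. Each enrichment value is the ratio of abundance after ligation to abundance before ligation.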

| Variant | ligation selection enrichment |
| --- | --- |
| GAGACCGCAACTGAAAAGTTGTGGAGGCTATAGTGAGTCGCTGCCTGCAAAGACACAACT [AGGCT] | 0.587 ± 0.3 |
| GAGACCGCAACTGAAAAGTTGTGGCGGCTATAGTGAGTCGCTGCCTGCAAAGACACAACT [CGGCT] | 0.432 ± 0.15 |
| GAGACCGCAACTGAAAAGTTGTGGGGGGAATAGTGAGTCGCTGCCTGCAAAGACACAACT [GGGGA] | 0.608 ± 0.042 |
| GAGACCGCAACTGAAAAGTTGTGGAGGGAATAGTGAGTCGCTGCCTGCAAAGACACAACT [AGGGA] | 0.322 ± 0.059 |
| GAGACCGCAACTGAAAAGTTGTGGTGGGAATAGTGAGTCGCTGCCTGCAAAGACACAACT [TGGGA] | 0.263 ± 0.038 |
| GAGACCGCAACTGAAAAGTTGTGGCGGGAATAGTGAGTCGCTGCCTGCAAAGACACAACT [CGGGA] | 0.229 ± 0.025 |
| GAGACCGCAACTGAAAAGTTGTGGCGGGCATAGTGAGTCGCTGCCTGCAAAGACACAACT [CGGGC] | 0.0737 ± 0.008 |
| GAGACCGCAACTGAAAAGTTGTGGGGGGCATAGTGAGTCGCTGCCTGCAAAGACACAACT [GGGGC] | 0.21 ± 0.0028 |
| GAGACCGCAACTGAAAAGTTGTGGTGGGCATAGTGAGTCGCTGCCTGCAAAGACACAACT [TGGGC] | 0.171 ± 0.022 |
| GAGACCGCAACTGAAAAGTTGTGGAGGGCATAGTGAGTCGCTGCCTGCAAAGACACAACT [AGGGC] | 0.109 ± 0.0024 |
| GAGACCGCAACTGAAAAGTTGTGGGGGGGATAGTGAGTCGCTGCCTGCAAAGACACAACT [GGGGG] | 0.405 ± 0.028 |
| GAGACCGCAACTGAAAAGTTGTGGAGGGGATAGTGAGTCGCTGCCTGCAAAGACACAACT [AGGGG] | 0.251 ± 0.027 |
| GAGACCGCAACTGAAAAGTTGTGGTGGGGATAGTGAGTCGCTGCCTGCAAAGACACAACT [TGGGG] | 0.228 ± 0.049 |
| GAGACCGCAACTGAAAAGTTGTGGCGGGGATAGTGAGTCGCTGCCTGCAAAGACACAACT [CGGGG] | 0.165 ± 0.043 |
| GAGACCGCAACTGAAAAGTTGTGGTGGGTATAGTGAGTCGCTGCCTGCAAAGACACAACT [TGGGT] | 0.417 ± 0.23 |
| GAGACCGCAACTGAAAAGTTGTGGGGGGTATAGTGAGTCGCTGCCTGCAAAGACACAACT [GGGGT] | 0.345 ± 0.11 |
| GAGACCGCAACTGAAAAGTTGTGGAGGGTATAGTGAGTCGCTGCCTGCAAAGACACAACT [AGGGT] | 0.289 ± 0.097 |
| GAGACCGCAACTGAAAAGTTGTGGCGGGTATAGTGAGTCGCTGCCTGCAAAGACACAACT [CGGGT] | 0.147 ± 0.034 |
| GAGACCGCAACTGAAAAGTTGTGGGGGTAATAGTGAGTCGCTGCCTGCAAAGACACAACT [GGGTA] | 0.445 ± 0.024 |
| GAGACCGCAACTGAAAAGTTGTGGAGGTAATAGTGAGTCGCTGCCTGCAAAGACACAACT [AGGTA] | 0.41 ± 0.019 |
| GAGACCGCAACTGAAAAGTTGTGGTGGTAATAGTGAGTCGCTGCCTGCAAAGACACAACT [TGGTA] | 0.325 ± 0.017 |
| GAGACCGCAACTGAAAAGTTGTGGCGGTAATAGTGAGTCGCTGCCTGCAAAGACACAACT [CGGTA] | 0.133 ± 0.028 |
| GAGACCGCAACTGAAAAGTTGTGGCGGTCATAGTGAGTCGCTGCCTGCAAAGACACAACT [CGGTC] | 0.1 ± 0.011 |

| Variant | ligation selection enrichment |
| --- | --- |
| GAGACCGCAACTGAAAAGTTGTGGGGGTCATAGTGAGTCGCTGCCTGCAAAGACACAACT [GGGTC] | 0.201 ± 0.006 |
| GAGACCGCAACTGAAAAGTTGTGGTGGTCATAGTGAGTCGCTGCCTGCAAAGACACAACT [TGGTC] | 0.198 ± 0.019 |
| GAGACCGCAACTGAAAAGTTGTGGAGGTCATAGTGAGTCGCTGCCTGCAAAGACACAACT [AGGTC] | 0.196 ± 0.011 |
| GAGACCGCAACTGAAAAGTTGTGGGGGTGATAGTGAGTCGCTGCCTGCAAAGACACAACT [GGGTG] | 0.317 ± 0.033 |
| GAGACCGCAACTGAAAAGTTGTGGTGGTGATAGTGAGTCGCTGCCTGCAAAGACACAACT [TGGTG] | 0.288 ± 0.042 |
| GAGACCGCAACTGAAAAGTTGTGGAGGTGATAGTGAGTCGCTGCCTGCAAAGACACAACT [AGGTG] | 0.279 ± 0.036 |
| GAGACCGCAACTGAAAAGTTGTGGCGGTGATAGTGAGTCGCTGCCTGCAAAGACACAACT [CGGTG] | 0.24 ± 0.069 |
| GAGACCGCAACTGAAAAGTTGTGGTGGTTATAGTGAGTCGCTGCCTGCAAAGACACAACT [TGGTT] | 0.438 ± 0.044 |
| GAGACCGCAACTGAAAAGTTGTGGGGGTTATAGTGAGTCGCTGCCTGCAAAGACACAACT [GGGTT] | 0.318 ± 0.011 |
| GAGACCGCAACTGAAAAGTTGTGGAGGTTATAGTGAGTCGCTGCCTGCAAAGACACAACT [AGGTT] | 0.245 ± 0.075 |
| GAGACCGCAACTGAAAAGTTGTGGCGGTTATAGTGAGTCGCTGCCTGCAAAGACACAACT [CGGTT] | 0.202 ± 0.042 |
| GAGACCGCAACTGAAAAGTTGTGGAGTAAATAGTGAGTCGCTGCCTGCAAAGACACAACT [AGTAA] | 0.427 ± 0.042 |
| GAGACCGCAACTGAAAAGTTGTGGGGTAAATAGTGAGTCGCTGCCTGCAAAGACACAACT [GGTAA] | 0.348 ± 0.1 |
| GAGACCGCAACTGAAAAGTTGTGGCGTAAATAGTGAGTCGCTGCCTGCAAAGACACAACT [CGTAA] | 0.311 ± 0.023 |
| GAGACCGCAACTGAAAAGTTGTGGTGTAAATAGTGAGTCGCTGCCTGCAAAGACACAACT [TGTAA] | 0.267 ± 0.021 |
| GAGACCGCAACTGAAAAGTTGTGGAGTACATAGTGAGTCGCTGCCTGCAAAGACACAACT [AGTAC] | 0.492 ± 0.1 |
| GAGACCGCAACTGAAAAGTTGTGGGGTACATAGTGAGTCGCTGCCTGCAAAGACACAACT [GGTAC] | 0.479 ± 0.053 |
| GAGACCGCAACTGAAAAGTTGTGGCGTACATAGTGAGTCGCTGCCTGCAAAGACACAACT [CGTAC] | 0.447 ± 0.0085 |
| GAGACCGCAACTGAAAAGTTGTGGTGTACATAGTGAGTCGCTGCCTGCAAAGACACAACT [TGTAC] | 0.277 ± 0.037 |
| GAGACCGCAACTGAAAAGTTGTGGGGTAGATAGTGAGTCGCTGCCTGCAAAGACACAACT [GGTAG] | 1.05 ± 0.028 |
| GAGACCGCAACTGAAAAGTTGTGGCGTAGATAGTGAGTCGCTGCCTGCAAAGACACAACT [CGTAG] | 0.612 ± 0.083 |
| GAGACCGCAACTGAAAAGTTGTGGTGTAGATAGTGAGTCGCTGCCTGCAAAGACACAACT [TGTAG] | 0.307 ± 0.076 |

— the supplement of paper PMC10219994
